System: MS2 coat protein
Experiment: apparent KD of MS2 coat protein; designed switch direction (-1 OFF switch, 1 ON switch): -1; higher = weaker reporter binding
Method in brief: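 Three titration conditions were used: no input, 200 uM small-molecule ligand, and an oligonucleotide input. In each, SNAP-549-labelled MS2 coat protein was raised from 0.7 or 1.5 nM, doubling, to 3 µM over designed RNA switches transcribed on Illumina chips by stalled E. coli RNA polymerase. Curve fits of normalised cluster fluorescence gave values whose per-design median over clusters is the apparent KD.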

[1] = Eterna round: R95, input ligand: microRNA oligo, concentration not stated
[2] = input ligand: microRNA oligo, concentration not stated
[3] = Eterna round: R95, input ligand: FMN 200 uM
[4] = Eterna round: R95, input ligand: none

Sequence	apparent KD of MS2 coat protein (input ligand: FMN 200 uM) [nM]	apparent KD of MS2 coat protein (input ligand: none) [nM]	apparent KD of MS2 coat protein [1] [nM]	apparent KD of MS2 coat protein [2] [nM]	apparent KD of MS2 coat protein [3] [nM]	apparent KD of MS2 coat protein [4] [nM]
CCAAGCUUAUUCAUUAACCACAUGAGGAUCACCCAUGUAUAGGCAAUUAUGACUGGGCUCUGUGGUGCUCGUCUUCU [mod-malcom] (Eterna round: R97, puzzle: Sensor, turn-off variant 1)	59.7	60.3	–	–	–	–
CCAGCGUAUGUGAGGAUAUGCUGGUCCUUGGAUCAGCAGAAGGCACAUGAGGAUCACCCAUGUGGAAACGUUGG [JL bmx4 3.41] (puzzle: Brourd's mod of Exclusion 4)	–	–	16.4	–	–	–
CCAGCGUAUGUGAGGAUAUGCUGGUCCUUGGAUCAGCAGAAGGCACAUGAGGAUCACCCAUGUGGAAACGUUGG [Mod of JL 1 - Jieux - Brourd's mod of Exclusion 4] (Eterna round: R97, puzzle: Brourd's mod of Exclusion 4)	95.4	24.3	–	–	–	–
CCAUAUAACUGAGGAUAUAAUCACCACUAACAUUUAGAAGGCAGACAUGAGGAUCACCCAUGUGAUUUCUCAAUAUUAUACAUC [Prohibition 77 - Jieux - Exclusion NG 1] (Eterna round: R96, puzzle: Exclusion NG 1)	387	1140	–	544	–	–
CCAUCACAUGAGGAUCACCCAUGUUAGGAUAUCAUUAGCCUCGGAGCUAUAGCGAGGUUGAGAAGGGACAUGUC [Eternabot (L1) Solution 87] (Eterna round: R97, puzzle: Exclusion 1)	19.9	22.7	–	–	–	–
CCAUGAUAAGGAUAUUGAAGGUUCGACAUGAGGAUCACCCAUGUUAUGUUGGAAAAGGGACAAGAAGGUAUUAAUU [salish99_ex5_r4_221] (Eterna round: R97, puzzle: Exclusion 5)	48.2	45.8	–	–	–	–
CCAUGUUAGCAGGAUAUGCUAUUAAUCUUUUAUGCAGAAGGGCUUACAUGAGGAUCACCCAUGUAUUAAGUCAA [JR_E6_Sub077] (puzzle: Exclusion 6)	–	–	13.2	–	–	–
CCAUUCAGAGGAUAUGCGCAUAAAUAAGACUUUUUUUUUUAACAUGAGGAUCACCCAUGUAGAAGGCUGUAACC [Ex2 #46] (Eterna round: R97, puzzle: Exclusion 2)	24.6	24.8	–	–	–	–
CCCACAAGCUUUUUGCUCGACAUGAGGAUCACCCAUGUAAAAUGGGUAAAUUUAAAUUGAAACAAUUUAAAUUUGGG [-20.1, -44.2 kcal, A 35%] (Eterna round: R97, puzzle: Sensor, turn-off variant 1)	262	222	–	–	–	–
CCCAGGGCAGGAUAUAGAGGGUGAAACAUGAGGAUCACCCAUGUGACCUCGGAACAGCUGCUAGAAGGGCCAAAUU [Eszaraxe] (puzzle: Exclusion 5)	–	–	15.3	–	19.2	16.3
CCCAGUUAUUGAGGAUAUCGUACAUGAGGAUCACCCAUGUAAUAAAUGAGGAUUUCGGGUGUCUACGAGAAGGCAAGGAUAGGC [Ostracism 21 - Jieux - Exclusion NG 2] (Eterna round: R96, puzzle: Exclusion NG 2)	61.3	49.6	–	37.4	–	–
CCCAUGUUAGGAUAUAUGGAAGGGCAGACGGGCGCCCUAAGGUAGAAGGAACAUGAGGAUCACCCAUGUAAUAA [Zausteesre] (Eterna round: R97, puzzle: Exclusion 4)	113	67.3	–	–	–	–
CCCGACAUGUCUUCGUAAUACAUGAGGAUCACCCAUGUCACGUAGGAUAUCCAGUCGGUAAGAGAGGAGAAGGAUGUAAGAAAU [Vedite] (Eterna round: R96, puzzle: Exclusion NG 3)	15.5	15.5	–	9.14	–	–
CCCGUCGAUGUAGGAUAUGCCCGGGUCUCCCGGGCAGAAGGACAUGAGGAUCACCCAUGUUCAUGAGGAUCACCCAUGAAUGGG [Double but mutated MS2] (Eterna round: R96, puzzle: Exclusion NG 1)	12.1	16.6	–	12.1	–	–
CCCGUGUAAGGAUAUCGUUCACUUGGCAAAAGUCGAGUGGACGAGAAGGUACAUGAGGAUCACCCAUGUACGGG [-32.4, -32 kcal, A 28%] (Eterna round: R97, puzzle: Exclusion 4)	406	282	–	–	–	–
CCCUCACUUGAGGAUCACCCAAGUCAGGAUAUCUCACCCAUCCUACGGGACGGGUCACAGAGAAGGGACUAAAA [Isdius] (Eterna round: R97, puzzle: Exclusion 1)	37.3	20	–	–	–	–
CCCUCAUGACGCACAUGAGGAUCACCCAUGUAUAAACCGUCAGAGGAUAUCCGCCGGUCACCGAAGGAGAAGGCUGACCUAAAG [Quinlaan] (Eterna round: R96, puzzle: Exclusion NG 3)	21.2	18.2	–	11	–	–
CCCUCGGGAGGAUAUGGGUGUUUUUACAUGAGGAUCACCCAUGUGGAGUAGCAUGUGGGUCCAGAAGGCCCAAGGG [-27.5, -25.8 kcal, 22% A] (Eterna round: R97, puzzle: Exclusion 5)	873	815	–	–	–	–
CCGAACAUAGGAUAUACAUGAGGAUCACCCAUGUAUAUAAAAGGGUGUUCCAACUAAAGUAGAAGGAUGUAAGG [ExFusion 1 - Jieux - Exclusion 3] (Eterna round: R97, puzzle: Exclusion 3)	36.5	40.6	–	–	–	–
CCGAGGCUAGGAUAUUGACGAUAAUACAUGAGGAUCACCCAUGUGAGUCGUGUAUGCGCGCAAGAAGGAGUAAUAA [Tiorreonbi] (puzzle: Exclusion 5)	–	–	15.2	–	–	–
CCGCAAAUGAAGGAUAUCGUAUCGGAUACGAUACGAGAAGGUCGAACAUGAGGAUCACCCAUGUGUCCUAGCGG [Fiskers Ex 6 - 41] (puzzle: Exclusion 6)	–	–	11.2	–	19.4	12.1
CCGCUAAGAGCAGGAUAUGAGUAACAUGAGGAUCACCCAUGUGGACCAUGAAACAGUCCACGCAGUCAGAAGGGUUACGUGGCA [Eternabot solution 33] (Eterna round: R96, puzzle: Exclusion NG 2)	38.8	34.3	–	23.1	–	–
CCGCUGCAAGGAUAUACUUGCGGUGAUGUUCGAGUUCUUCUACUUGAGGAUCACCCAAGUAGAAGGUGCAAAAC [jl-ex2.4.58 ViennaUCT mod] (Eterna round: R97, puzzle: Exclusion 2)	19.2	19.3	–	–	–	–
CCGCUGCAAGGAUAUACUUGCGGUGGUGUUCGAGUUCUUUUACUUGAGGAUCACCCAAGUAGAAGGUGCAAAAC [jl-ex2.4.54 ViennaUCT mod] (Eterna round: R97, puzzle: Exclusion 2)	17.3	16.2	–	–	–	–
CCGGAAAUAGAGGAUAUCGUAUCGGAUACGAUACGAGAAGGCUAUACAUGAGGAUCACCCAUGUGUCCUACCGG [Fiskers Ex 6 - 56] (puzzle: Exclusion 6)	–	–	16.1	–	–	–
CCGGAAAUGCAGGAUAUCGUAUCGGAUACGAUACGAGAAGGGUAUACAUGAGGAUCACCCAUGUGUCCUCCCGG [Fiskers Ex 6 - 53] (puzzle: Exclusion 6)	–	–	28	–	–	–
